Reference: patent US20190233517A1 (published 2019)
Positions count from the first letter of the chain named. In names and notes the source's numbering stands.

B1: FIT018a CD20 (Ofatumumab)/CD3 mAb (bispecific antibody, human IgG1, kappa, lambda, L234A L235A)
chain 1: not shown
chain 2: EVQLVESGGGLVQPGRSLRLSCAASGFTFNDYAMHWVRQAPGKGLEWVSTISWNSGSIGYADSVKGRFTISRDNAKKSLYLQMNSLRAEDTALYYCAKDIQYGNYYYGMDVWGQGTTVTVSSASTKGPSVFPLAPSSKSTSGGTAALGCLVKDYFPEPVTVSWNSGALTSGVHTFPAVLQSSGLYSLSSVVTVPSSSLGTQTYICNVNHKPSNTKVDKKVEPKSC
chain 3: ELVVTQEPSLTVSPGGTVTLTCRSSTGAVTTSNYANWVQQKPGQAPRGLIGGTNKRAPGTPARFSGSLLGGKAALTLSGVQPEDEAEYYCALWYSNLWVFGGGTKLTVLGQPKAAPSVTLFPPSSEELQANKATLVCLISDFYPGAVTVAWKADSSPVKAGVETTTPSKQSNNKYAASSYLSLTPEQWKSHRSYSCQVTHEGSTVEKTVAPTECS
B2: FIT013a cMet (h1332 (13.3.2L-A91T,H-42K,S97T))/EGFR (panitumumab) (bispecific antibody, human IgG1, kappa)
chain 1: not shown
chain 2: QVQLVQSGAEVKKPGASVKVSCKASGYTFTSYGFSWVRQAPGQGLEWMGWISASNGNTYYAQKLQGRVTMTTDTSTSTAYMELRSLRSDDTAVYYCARVYADYADYWGQGTLVTVSSASTKGPSVFPLAPSSKSTSGGTAALGCLVKDYFPEPVTVSWNSGALTSGVHTFPAVLQSSGLYSLSSVVTVPSSSLGTQTYICNVNHKPSNTKVDKKVEPKSC
chain 3: not shown
B3: OKT3/Ofatumumab FIT8-Ig (bispecific antibody, human IgG1, kappa)
chain 1: not shown
chain 2: not shown
chain 3: not shown
notes: FIT-Ig of 3 polypeptides, two copies of each chain, human IgG1 Fc
B4: OKT3/Ofatumumab FIT7-Ig (bispecific antibody, human IgG1, kappa)
chain 1: not shown
chain 2: not shown
chain 3: not shown
notes: as for B3
B5: cMet antibody h1332 (13.3.2L-A91T,H-42K,S97T) (antibody, V domains shown)
VH: QVQLVQSGAEVKKPGASVKVSCKASGYTFTSYGFSWVRQAPGQGLEWMGWISASNGNTYYAQKLQGRVTMTTDTSTSTAYMELRSLRSDDTAVYYCARVYADYADYWGQGTLVTVSS
VL: DIQMTQSPSSVSASVGDRVTITCRASQGINTWLAWYQQKPGKAPKLLIYAASSLKSGVPSRFSGSGSGTDFTLTISSLQPEDFATYYCQQANSFPLTFGGGTKVEIK

Assays:
[1] = biological target: T1, cynomolgus CD20 on transiently transfected HEK 293 cells (cynomolgus, UniProt M4ZHZ6 1-297); test: flow cytometry on HEK 293 cells transfected with cynoCD20
T1 construct: whole, on cells; also called cynoCD20
T1 sequence: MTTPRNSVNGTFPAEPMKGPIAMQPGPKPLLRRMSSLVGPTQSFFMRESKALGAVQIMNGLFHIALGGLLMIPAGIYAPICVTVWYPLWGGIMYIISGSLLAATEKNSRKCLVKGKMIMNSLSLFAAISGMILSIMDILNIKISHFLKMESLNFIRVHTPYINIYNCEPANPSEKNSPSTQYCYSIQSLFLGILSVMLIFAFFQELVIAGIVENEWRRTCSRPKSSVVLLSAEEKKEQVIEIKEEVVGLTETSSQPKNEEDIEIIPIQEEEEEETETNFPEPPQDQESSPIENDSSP
Excerpt: (§1) Raji cell was used for detecting human B cell binding. […] Cells were washed in PBS buffer containing 2% FBS. […] Cells were washed and signal was detected with a BD FACSVerse flow cytometer according to manufacture's protocols.

[2] = biological target: T2, CD20 on the cell surface of Raji cells (human, UniProt P11836 1-297); test: flow cytometry on Raji cells
T2 construct: whole, on cells; also called CD20 (Raji)
T2 sequence (looked up): T1 sequence with P25S, L31F, A51T, V157A, R217K, S226N, V227I, V239T
Excerpt: as §1

membrane EGFR = membrane EGFR (human, UniProt P00533 25-1210); test: cell-based or functional assay
[3] = biological target: T2, CD20 on the cell surface of Raji cells; test: flow cytometry on Raji cells, 100 nM

Binder	EGFR Depletion (%), H441 cell, FACS after >16 hrs at 37 C (membrane EGFR)	Binding Intensity by FACS (MFI) [3]	other results
B1	–	–	binding result [1]: binds; binding result [2]: binds
B2	65.9%	–	–
B3	–	274 MFI	–
B4	–	291 MFI	–
B5	0%	–	–
